For this assay, the target named is CD122/CD132 receptor on cells of human PBMCs (human) (UniProt P14784). Description: cell-based or functional assay.
CD122/CD132 receptor on cells of human PBMCs (human), sequence (P14784 27-551, chain 1 of 2): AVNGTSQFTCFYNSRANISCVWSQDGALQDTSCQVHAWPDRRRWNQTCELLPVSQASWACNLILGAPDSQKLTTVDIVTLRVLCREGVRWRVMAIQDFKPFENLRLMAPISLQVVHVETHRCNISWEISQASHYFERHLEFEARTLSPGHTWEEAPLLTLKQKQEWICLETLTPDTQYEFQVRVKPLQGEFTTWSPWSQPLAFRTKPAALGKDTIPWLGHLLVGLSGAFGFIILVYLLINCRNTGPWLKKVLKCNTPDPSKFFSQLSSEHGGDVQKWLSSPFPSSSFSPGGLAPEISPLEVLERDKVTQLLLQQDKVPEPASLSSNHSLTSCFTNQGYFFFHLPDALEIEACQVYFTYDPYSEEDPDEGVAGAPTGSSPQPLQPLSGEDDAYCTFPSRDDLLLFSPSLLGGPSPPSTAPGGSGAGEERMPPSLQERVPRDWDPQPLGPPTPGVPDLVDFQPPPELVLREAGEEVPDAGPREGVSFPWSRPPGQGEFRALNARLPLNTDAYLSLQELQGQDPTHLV
CD122/CD132 receptor on cells of human PBMCs (human), sequence (P31785 23-369, chain 2 of 2, further chain): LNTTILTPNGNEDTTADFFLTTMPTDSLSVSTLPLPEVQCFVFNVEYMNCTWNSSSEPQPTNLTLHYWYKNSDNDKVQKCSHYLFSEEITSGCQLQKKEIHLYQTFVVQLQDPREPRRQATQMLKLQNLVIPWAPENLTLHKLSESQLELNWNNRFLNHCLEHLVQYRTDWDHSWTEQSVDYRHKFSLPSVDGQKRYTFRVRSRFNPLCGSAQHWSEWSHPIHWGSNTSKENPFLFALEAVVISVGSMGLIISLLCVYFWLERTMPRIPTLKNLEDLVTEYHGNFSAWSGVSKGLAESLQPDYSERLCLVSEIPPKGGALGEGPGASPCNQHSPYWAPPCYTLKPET

As to “C-term N88D: irrelevant antibody with IL-2 N88D fused to its C-terminus (IgG-(IL-2N88D)2 of Peterson et al.)”, the pSTAT5 EC50, Treg (human PBMCs) amounted to 0.37 nM and the pSTAT5 Max. Signal, Treg (normalised to V69A/Q74P) was 0.5.
